Assay results published in FireProtDB (doi:10.1016/j.jmb.2005.06.006).
Several values for one entry are separate records, joined by “and”; a condition that tells them apart may be missing. Equal entries are not always repeated.

Conditions: Escherichia coli (strain K12); pH 7.8; 25 °C; Urea; CD; Potassium phosphate 10 mM; transition: 3; whole UniProt chain shown

B1: Tryptophan synthase alpha chain wild type, P0A877 (protein)
chain: MERYESLFAQLKERKEGAFVPFVTLGDPGIEQSLKIIDTLIEAGADALELGIPFSDPLADGPTIQNATLRAFAAGVTPAQCFEMLALIRQKHPTIPIGLLMYANLVFNKGIDEFYAQCEKVGVDSVLVADVPVEESAPFRQAALRHNVAPIFICPPNADDDLLRQIASYGRGYTYLLSRAGVTGAENRAALPLNHLVAKLKEYNAAPPLQGFGISAPDQVKAAIDAGAAGAISGSAIVKIIEQHINEPEKMLAALKVFVQPMKAATRS
For B1, the denaturant m value was 2.29 kcal/mol/M and 1.2 kcal/mol/M and the unfolding free energy was 6.13 kcal/mol and 4.72 kcal/mol.
